Measurements as given in article PMC7203116, “Cryo-electron microscopy reveals two distinct type IV pili assembled by the same bacterium” (Nature Communications, 2020).

Biological target: the molecule itself
Assay: cryo-EM structure; single-particle cryoEM and helical reconstruction (SPRING) of pili isolated from T. thermophilus HB27; wide and narrow filaments boxed separately from the same micrographs; atomic models built de novo

Protein	binding result
PilA5 (TT_C1836), pilin of Thermus thermophilus HB27 (subunit of the narrow type IV pilus) (natural protein, UniProt Q72GL2 6-116, looked up, extra density attributed to an O-linked glycan at Ser73; disulphide bond Cys60-Cys88, 111 amino acids; all residues of the mature protein are in the model PDB 6XXE. numbers count on: the mature protein; Assembled as a helical filament (narrow pilus; rise 11.26 Å, twist 84.3°); the deposited model holds 16 identical subunits; also called Tt17; narrow pilus subunit; source: endogenous, pili isolated from T. thermophilus HB27 cells (ethanolamine buffer pH 10.5, ammonium sulfate …)) FTLIELAIVIVIIGILVAIAVPRFVDLTDQANQANVDATAAAVRSAYAIATVQAKGIPTCDQVFANPEGGSTSGSTWTSSDNSTTVSCNASADTFTISRGGKTRTLNLTVN	binds
PilA4, major pilin of Thermus thermophilus HB27 (subunit of the wide type IV pilus) (natural protein, UniProt Q72JC0 7-131, looked up, extra densities attributed to O-linked glycans at Ser59, Ser66 and Ser71; disulphide bond Cys89-Cys124, PilA4, major type IV pilin of Thermus thermophilus HB27; mature pilin of 125 amino acids (Phe1 to Pro125) after cleavage of the class III signal peptide; all residues of the mature protein are in the model PDB 6XXD. numbers count on: the mature protein; Assembled as a helical filament (wide pilus; rise 9.33 Å, twist 92.5°); the deposited model holds 16 identical subunits; also called wide pilus …) FTLIELLIVIAIIAILAAVLIPNLLAARKRANDTVVTAYLNDAVKFQEMYQIDNNSYTSNQAALISLGLKSTPANVTFSIVSASANSYCMIAGHSGGTVWFAATPDKGVYKTNTAVTSSQPESCP	binds
